# Patent US20230301998A1, “METHODS AND COMPOSITIONS FOR INDUCTION OF ANTITUMOR IMMUNITY” (Sanford Burnham Prebys Medical Discovery Institute, priority 2020, published 2023)
# B1: interferon-gamma: interferon gamma (R&D Systems) used to stimulate cells (protein, UniProt P01579 24-161, looked up)
# Interferon gamma: QDPYVKEAENLKKYFNAGHSDVADNGTLFLGILKNWKEESDRKIMQSQIVSFYFKLFKNFKDDQSIQKSVETIKEDMNVKFFNSNKKKRDDFEKLTNYSVTDLNVQRKAIHELIQVMAELSPAAKTGKRKRSQMLFRG
# Tested on: Nlrc5 and Nlrc5 target genes
# Assay: Expression of antigen presentation genes / surface MHCI in B16 cells
# Assay type: cell-based, mouse
# Conditions: B16 cells stimulated 24 hr (FIGS. 13E-G)
molecule,measurement,value
B1,expression of PSMB9 and surface expression of MHCI (H-2Kb),increased
